Results taken from patent publication US7968306B2 (Wisconsin Alumni Research Foundation, priority 2002, dated 2011).

T1: porcine pancreatic lipase (Sus scrofa, UniProt P00591)
T1 construct: purchased Sigma; host or cells: porcine pancreas
T1 sequence (P00591 1-450): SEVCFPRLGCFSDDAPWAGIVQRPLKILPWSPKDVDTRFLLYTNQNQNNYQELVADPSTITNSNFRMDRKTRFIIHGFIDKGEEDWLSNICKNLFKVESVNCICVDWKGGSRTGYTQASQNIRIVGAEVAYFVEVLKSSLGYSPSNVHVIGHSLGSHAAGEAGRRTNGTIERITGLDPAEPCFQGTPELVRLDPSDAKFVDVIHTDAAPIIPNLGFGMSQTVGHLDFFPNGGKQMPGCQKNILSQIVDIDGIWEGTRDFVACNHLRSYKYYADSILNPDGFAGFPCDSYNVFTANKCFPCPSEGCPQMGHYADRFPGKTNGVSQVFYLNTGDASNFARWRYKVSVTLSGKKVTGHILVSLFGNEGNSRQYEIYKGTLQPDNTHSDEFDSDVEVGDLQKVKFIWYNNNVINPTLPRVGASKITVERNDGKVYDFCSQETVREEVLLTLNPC

B1: Truncated α1-AT: 48 kDa truncated human α1-AT (16His to 357Pro) isolated from heat-treated CF BALF; PLA2 stimulator (protein, listed as Homo sapiens)
chain: HDQDHPTFDKITPDLAEFAFSLYRQLAHQSDSTNIFFSPVSIAAAFAMLSLGAKGDTHDEILEGLNFNLTEIPEAQIHEGFQELLRTLNQPDSQLQLTTGNGLFLSEFLKLFDKFLEDFKKLYHSEAFTVNFGTDEEAKKQINDYVEKGTQGKIVNLVKELDRDTVFALVNYIFFKGKWERPFEVKDTEEEDFHVDQVTTVKVPMMKRLGMFNIQHCKKLSSWVLLMKYLGNATAIFFLPDEGKLQHLENELTHDIITKFLENEDRRSASLHLPKLSITGTYDLKSVLGQLGITKVFSNGADLSGVTEEAPLKLSKAVHKAVLTIDEKGTEAAGAMFLEAIP
B2: annexin VIII: native rabbit lung annexin VIII protein (protein, UniProt O97529 1-327, looked up)
Annexin A8: MAWWKAWVEQEGVTVKGSPHFNPVPDAETLYKAMKGIGTNEQAIIDVLTRRSSAQRQQIAKSFKAQFGSDLTETLKSELSGKFERLIVALMYPPYRYEAKELHDAMKGLGTKEGVIIEILASRTKNQLQEIMKAYEEDYGSSLEEDIQADTSGYLERILVCLLQGSRDDVTGFVDPGLALQDAQDLYAAGEKICGTDEMKFITILCTRSARHLMRVFEEYEKIANKSIEDSIKSETHGSLEEAMLTIVKCTRNLHCYFAERLHYAMKGAGTLDGTLIRNIVSRSEIDLNLIKGHYKKMYGKTLSSMIMEDTSGDYKNALLSLVGSDP
B3: annexin I: native rabbit lung annexin I protein (protein, UniProt P51662 2-346, looked up)
Annexin A1: AMVSEFLKQAWFIDNEEQDYINTVKTYKGGPGSAVSPYPAFNPSSDVAALHQAIMVKGVDEATIIDILTKRNNAQRQQIKAAYLQEKGKPLDEVLKKALTGHLEEVVLALLKTPAQFDADELRAAMKGLGTDEDTLIEILASRNNKEIREINRVYREELKRDLAKDIASDTSGDFQKALLSLAKGDRSEDFGVNEDLADTDARALYEAGERRKGADVNVFTTILTTRSYLHLRRVFQKYSKYSQHDMNKVLDLELKGDIEKCLTAIVQCATCKPAYFAEKLYQAMKGAGTRHKALIRIMVSRSEVDMNDIKAFYQKKYGVSLCQAILDETKGDYEKILVALCGGN

Columns and labels:
[1] = molecular target: PLC (Clostridium perfringens) (Clostridium perfringens, UniProt P0C216)
[2] = molecular target: porcine pancreatic PLA2 (Sus scrofa, UniProt P00592); assay: Continuous fluorescent assay of PLA2 (Bis-BODIPY FL C11-PC labeled DOPC-PG liposomes); settings: for loss of activity after treating the protein in boiling water: boiling water for 5 min; for TFI: 5 ng PLA2, 37° C., 2 min; for TFI / % of control: truncated α1-AT 6 μg, intact α1-AT 20 μg, albumin 20 μg
[3] = molecular target: T1, porcine pancreatic lipase; assay: Fluorescent assay of lipase after PLC reaction; type: biochemical; settings: FIG. 42
[4] = molecular target: T2, pancreatic PLA2 (Sus scrofa, UniProt P00592); assay: Radioactive assay of PLA2 (14C-labeled liposomes); type: biochemical, porcine; settings: 10 μg rabbit lung annexin, FIG. 25
T2 construct: purchased Sigma Chemical (St. Louis, Mo.); host or cells: porcine pancreas
Experimental: Radioactive assay of PLA2. […] In some tests, 25-100 μg of CF BALF proteins, or 10 μg of rabbit lung annexin I or annexin VIII or both were added to the reaction mixture as specified. The reaction was carried out at room temperature for 30 sec and stopped by adding 2 ml of chloroform:methanol (1:2 vol) followed by addition of 0.4 ml water, and 10 μl of egg PC and lysoPC (20 nmol) which was used as carrier. The test tube was stirred using a Vortex. Lipids were extracted by adding additional 0.6 ml water and 0.6 ml chloroform. After agitating on a vortex, the mixture was centrifuged at 2,000 rpm for 10 min. The chloroform layer was withdrawn and transferred to a new test tube using a Pasteur pipette. Chloroform was evaporated to dryness under a flow of nitrogen. PC and lysoPC were isolated by the methods of silica gel thin-layer chromatography (TLC) using a developing solvent system of chloroform/methanol/water in a ratio of 65/45/5 as described previously (41). Lipids on the TLC plate were visualized by exposure of the TLC plate in an iodine tank. […] Radioactivity in the vial was determined by using a beta scintillation counter. PLA2 activity was expressed as either decrease in PC radioactivity or increase in fatty acid or lysoPC radioactivity as described previously (41).

[5] = with lysoPC (9 nmol), control LysoPC + PLA2
[6] = without lysoPC, control PLA2 (5 ng)

porcine pancreatic PLA2, sequence (P00592 23-146): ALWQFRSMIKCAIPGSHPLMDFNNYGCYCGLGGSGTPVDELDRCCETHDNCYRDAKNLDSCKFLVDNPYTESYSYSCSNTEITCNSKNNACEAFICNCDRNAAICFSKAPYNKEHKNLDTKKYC
T2 sequence (P00592 23-146): as above

Molecule	effect on PLC activity [1]	loss of activity after treating the protein in boiling water [2]	TFI ([2]; with lysoPC (9 nmol))	% of control [2, 5]	TFI ([2]; without lysoPC)	% of control [2, 6]	effect on lipase activity [3]	inhibition of PLA2 and PLA2-s activities [4]	further results
Human serum α1-AT: human serum α1-AT obtained from Sigma Chemical Co.	inhibited PLC activity	not affected	–	–	–	–	–	–	effect of commercial α1-AT on PLA2 activity ([2]; Sigma product, FIG. 44A): stimulated PLA2 activity
Intact α1-AT: intact 52 kDa human serum α1-AT; serum PLA2-s (protein-II) purified from human serum	effectively inhibited PLC activity	less than 20%	29.81	151.4%	68.96	183.3%	no effect on the lipase activity	–	effect on PLA2 activity ([2]; wide range of protein concentrations): exhibited only PLA2-stimulating activity
B1	effectively inhibited PLC activity	heat stable	31.82	161.6%	57.23	152.1%	no effect on the lipase activity	–	effect of isolated PLA2-s on pancreatic PLA2 activity ([2]; 6 μg PLA2-s, FIG. 29B): exhibited PLA2-stimulating activity; effect on PLA2 activity with 50% PC-50% PG liposomes ([2]; 6 μg truncated α1-AT, 37° C.): markedly stimulated; effect on PLA2 activity with 90% PC-10% PG liposomes ([2]; 6 μg truncated α1-AT, 37° C.): did not significantly enhance the PLA2 activity; effect on PLA2 activity with 100% PC liposomes ([2]; 6 μg truncated α1-AT, 37° C.): did not stimulate PLA2 activity
B2	–	–	–	–	–	–	–	significantly inhibited	–
B3	–	–	–	–	–	–	–	significantly inhibited	inhibition of PLA2 activity and of the effect of truncated α1-AT on PLA2 stimulation ([2]; fluorescent assay, FIG. 46B): markedly inhibited
